Experimental data: IntAct's records for PubMed 17599067

B1: Inhibitor of nuclear factor kappa-B kinase subunit epsilon (Homo sapiens), Q14164 (parent)
chain: MQSTANYLWHTDDLLGQGATASVYKARNKKSGELVAVKVFNTTSYLRPREVQVREFEVLRKLNHQNIVKLFAVEETGGSRQKVLVMEYCSSGSLLSVLESPENAFGLPEDEFLVVLRCVVAGMNHLRENGIVHRDIKPGNIMRLVGEEGQSIYKLTDFGAARELDDDEKFVSVYGTEEYLHPDMYERAVLRKPQQKAFGVTVDLWSIGVTLYHAATGSLPFIPFGGPRRNKEIMYRITTEKPAGAIAGAQRRENGPLEWSYTLPITCQLSLGLQSQLVPILANILEVEQAKCWGFDQFFAETSDILQRVVVHVFSLSQAVLHHIYIHAHNTIAIFQEAVHKQTSVAPRHQEYLFEGHLCVLEPSVSAQHIAHTTASSPLTLFSTAIPKGLAFRDPALDVPKFVPKVDLQADYNTAKGVLGAGYQALRLARALLDGQELMFRGLHWVMEVLQATCRRTLEVARTSLLYLSSSLGTERFSSVAGTPEIQELKAAAELRSRLRTLAEVLSRCSQNITETQESLSSLNRELVKSRDQVHEDRSIQQIQCCLDKMNFIYKQFKKSRMRPGLGYNEEQIHKLDKVNFSHLAKRLLQVFQEECVQKYQASLVTHGKRMRVVHETRNHLRLVGCSVAACNTEAQGVQESLSKLLEELSHQLLQDRAKGAQASPPPIAPYPSPTRKDLLLHMQELCEGMKLLASDLLDNNRIIERLNRVPAPPDV
partner: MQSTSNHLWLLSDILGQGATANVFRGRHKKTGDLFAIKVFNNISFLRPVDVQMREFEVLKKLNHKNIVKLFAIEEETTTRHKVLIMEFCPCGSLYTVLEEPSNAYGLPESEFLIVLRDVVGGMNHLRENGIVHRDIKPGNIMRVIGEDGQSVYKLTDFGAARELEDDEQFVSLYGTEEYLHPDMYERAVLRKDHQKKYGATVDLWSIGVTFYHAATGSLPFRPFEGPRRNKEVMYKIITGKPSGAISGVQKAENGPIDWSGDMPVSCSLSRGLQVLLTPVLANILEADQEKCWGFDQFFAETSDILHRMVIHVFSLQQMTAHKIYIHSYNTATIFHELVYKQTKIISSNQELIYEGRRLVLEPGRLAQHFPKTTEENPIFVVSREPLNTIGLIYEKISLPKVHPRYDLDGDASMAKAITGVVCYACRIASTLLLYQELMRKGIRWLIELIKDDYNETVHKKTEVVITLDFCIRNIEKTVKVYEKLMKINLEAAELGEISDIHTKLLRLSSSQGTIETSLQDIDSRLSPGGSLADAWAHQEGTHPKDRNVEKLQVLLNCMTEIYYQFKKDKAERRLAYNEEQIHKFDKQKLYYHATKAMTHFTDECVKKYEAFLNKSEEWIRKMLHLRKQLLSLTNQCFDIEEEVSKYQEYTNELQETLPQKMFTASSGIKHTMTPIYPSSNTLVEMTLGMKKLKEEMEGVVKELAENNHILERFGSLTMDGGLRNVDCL
B2: Serine/threonine-protein kinase TBK1 (Homo sapiens), Q9UHD2 (parent)
chain: B1 partner
partner: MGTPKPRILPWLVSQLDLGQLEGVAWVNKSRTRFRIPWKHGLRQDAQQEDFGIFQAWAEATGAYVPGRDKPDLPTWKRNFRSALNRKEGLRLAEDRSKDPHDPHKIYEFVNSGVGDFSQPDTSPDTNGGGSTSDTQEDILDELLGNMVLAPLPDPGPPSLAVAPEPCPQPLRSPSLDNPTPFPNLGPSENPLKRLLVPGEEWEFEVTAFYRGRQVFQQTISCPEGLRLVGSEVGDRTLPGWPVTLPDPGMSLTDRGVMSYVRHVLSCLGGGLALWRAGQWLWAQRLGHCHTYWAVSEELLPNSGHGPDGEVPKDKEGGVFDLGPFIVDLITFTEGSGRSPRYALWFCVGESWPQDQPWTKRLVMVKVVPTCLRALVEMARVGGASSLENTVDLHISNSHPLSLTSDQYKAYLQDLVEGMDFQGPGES

Variants of: B1
Details: with tbk1_human TBK1, Q9UHD2

effect of a mutation on the interaction	Variant
increasing interaction	F354A
increasing interaction	L353A

Variants of: B2
Details: with irf3_human IRF3, Q14653

effect of a mutation on the interaction	Variant
disrupting interaction	I353A
disrupting interaction	L352A
